The target in the assay is synthetic glycosylated MUC1 30-mer peptide …[GalNAcalpha]…. The experiment in a line: ELISA on plate-coated glycosylated MUC1 30-mer peptide, antibody 1-400 ng/ml, anti-human Fcgamma1-peroxidase detection. A general note: An ELISA detects its analyte on a solid surface through an enzyme-linked reagent.
Sequence of synthetic glycosylated MUC1 30-mer peptide …[GalNAcalpha]… (peptide, as listed by the source): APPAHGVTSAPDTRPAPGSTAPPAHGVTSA

In the case of “chimeric PankoMab isolated from NM-F9 cells (antibody)”, the binding activity, percent higher than that of the same antibody isolated from CHOdhfr- cells came out at 50%.
